Measured values taken from publication PMC7020754.
Where a chain is given by its changes, count along the chain named.

T1: Rv0023 (XRE family transcription regulator) (Mycobacterium tuberculosis, UniProt P9WMI3 1-256)
T1 sequence: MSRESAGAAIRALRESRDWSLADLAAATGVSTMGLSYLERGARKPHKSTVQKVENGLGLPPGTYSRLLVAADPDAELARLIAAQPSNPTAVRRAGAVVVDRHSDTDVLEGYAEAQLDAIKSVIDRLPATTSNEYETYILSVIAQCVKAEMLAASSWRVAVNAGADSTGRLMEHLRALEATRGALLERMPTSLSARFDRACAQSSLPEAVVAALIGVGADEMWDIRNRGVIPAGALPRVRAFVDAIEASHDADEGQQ

B1: F4 (dsDNA)
DNA 1: TGGCCGCGCCGGCCGACTCACGGCTCACCGCACGCTCCGGCCATAAGCCGGATACTACCC
DNA 2: GGGTAGTATCCGGCTTATGGCCGGAGCGTGCGGTGAGCCGTGAGTCGGCCGGCGCGGCCA
B2: OL2 (dsDNA)
DNA 1: TTTTATCGCGATTCTCTTGCAGAGCCCGCCACAGACATAT
DNA 2: ATATGTCTGTGGCGGGCTCTGCAAGAGAATCGCGATAAAA
B3: M0 (dsDNA)
DNA 1: AGAGCCCGCCACAGACATATACGCTTTTGCCTATGTTTC
DNA 2: GAAACATAGGCAAAAGCGTATATGTCTGTGGCGGGCTCT
B4: M1 (dsDNA)
DNA 1: B3 DNA 1 with T18G
DNA 2: B3 DNA 2 with A22C
B5: M5 (dsDNA)
DNA 1: B3 DNA 1 with T25G
DNA 2: B3 DNA 2 with A15C
B6: M10 (dsDNA)
DNA 1: B3 DNA 1 with C22T
DNA 2: B3 DNA 2 with G18A
B7: M9 (dsDNA)
DNA 1: B3 DNA 1 with G23T
DNA 2: B3 DNA 2 with C17A
B8: M4 (dsDNA)
DNA 1: B3 DNA 1 with A21G
DNA 2: B3 DNA 2 with T19C
B9: F1 (dsDNA)
DNA 1: AGAGCCCGCCACAGACATATACGCTTTTGCCTATGTTTCGTTCAACAAGGAGGCCGGCAC
DNA 2: GTGCCGGCCTCCTTGTTGAACGAAACATAGGCAAAAGCGTATATGTCTGTGGCGGGCTCT
B10: F3 (dsDNA)
DNA 1: CCATAAGCCGGATACTACCCGGATACGACTCGGCCGCGGCCACCCCTTATGTATATACGT
DNA 2: ACGTATATACATAAGGGGTGGCCGCGGCCGAGTCGTATCCGGGTAGTATCCGGCTTATGG
B11: OL5 (dsDNA)
DNA 1: ATTCTCTTGCAGAGCCCGCCACAGACATATACGCTTTTGC
DNA 2: GCAAAAGCGTATATGTCTGTGGCGGGCTCTGCAAGAGAAT
B12: OL1 (dsDNA)
DNA 1: CACCCCTTATGTATATACGTTTTTATCGCGATTCTCTTGC
DNA 2: GCAAGAGAATCGCGATAAAAACGTATATACATAAGGGGTG
B13: F2 (dsDNA)
DNA 1: CACCCCTTATGTATATACGTTTTTATCGCGATTCTCTTGCAGAGCCCGCCACAGACATAT
DNA 2: ATATGTCTGTGGCGGGCTCTGCAAGAGAATCGCGATAAAAACGTATATACATAAGGGGTG
B14: OL4 (dsDNA)
DNA 1: ACGCTTTTGCCTATGTTTCGTTCAACAAGGAGGCCGGCAC
DNA 2: GTGCCGGCCTCCTTGTTGAACGAAACATAGGCAAAAGCGT
B15: F6 (dsDNA)
DNA 1: GCTCAGGCCCATGGTGCTTACGCCAGTGGCGGCCGCCAGGTCCGCGAGGGACCAGTCACG
DNA 2: CGTGACTGGTCCCTCGCGGACCTGGCGGCCGCCACTGGCGTAAGCACCATGGGCCTGAGC
B16: F5 (dsDNA)
DNA 1: TCCGCGAGGGACCAGTCACGCGACTCGCGAAGTGCGCGAATGGCCGCGCCGGCCGACTCA
DNA 2: TGAGTCGGCCGGCGCGGCCATTCGCGCACTTCGCGAGTCGCGTGACTGGTCCCTCGCGGA
B17: OL3 (dsDNA)
DNA 1: AGAGCCCGCCACAGACATATACGCTTTTGCCTATGTTTCG
DNA 2: CGAAACATAGGCAAAAGCGTATATGTCTGTGGCGGGCTCT

Molecular target: T1, Rv0023 (XRE family transcription …)
Test: EMSA; 8 pmol protein
Conditions: protein: recombinant, tags: His (implied by Ni-NTA purification; pET23a, also printed pET21b), chain copies: 2, label: 32P

Binder | binding result (blunt) | binding result
B1 | no binding | 
B2 | no binding | 
B3 |  | binds
B4 |  | binds
B5 |  | binds
B6 |  | binds
B7 |  | binds
B8 |  | binds
B9 | binds | 
B10 | no binding | 
B11 | no binding | 
B12 | binds | 
B13 | binds | 
B14 | no binding | 
B15 | no binding | 
B16 | no binding | 
B17 | binds | 
